Consider one substance from PMC4349446.

The experiment has as its target Recombinant truncated LOX-1 (61–273 amino acids, extracellular domain) with a hexa-histidine tag (human) (UniProt P78380). Kind of experiment: ELISA; human LOX-1 (1 μg/ml) coated on wells; hSAA3 peptide 10–2,000 ng/ml in PBS-0.05% Tween20–0.5% Triton X-100; retained peptide detected with monoclonal anti-hSAA3-HRP.

Regarding “hSAA3 C-terminal 26 mer synthetic peptide”, the Kd (commonly the free concentration of one partner at which half of the binding sites on the other are occupied at equilibrium, for simple one-to-one binding) is 99 nM.
